Data published in PMC5261807 (2017).
Non-standard residues stand in square brackets, D forms with d. No end group written: not given here. Arg(Me2a) = CN(C)C(=N)NCCC[C@H](N)C(=O)O; Lys(Me3) = C[N+](C)(C)CCCC[C@H](N)C(=O)O; Arg(Me2s) = CN=C(NC)NCCC[C@H](N)C(=O)O; pT = C[C@@H](OP(=O)(O)O)[C@H](N)C(=O)O; Me2a = asymmetric dimethyl (on Arg); Lys(Me2) = CN(C)CCCC[C@H](N)C(=O)O; Me2s = symmetric dimethyl (on Arg); pS = N[C@@H](COP(=O)(O)O)C(=O)O; Lys(Me) = CNCCCC[C@H](N)C(=O)O

T1: Bdf1 bromodomain 2 (GST-tagged, WT) (Saccharomyces cerevisiae (strain ATCC …, UniProt P35817))
T1 chain: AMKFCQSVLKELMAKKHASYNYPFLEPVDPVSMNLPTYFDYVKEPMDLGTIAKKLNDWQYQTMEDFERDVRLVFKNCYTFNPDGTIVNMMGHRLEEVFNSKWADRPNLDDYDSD

T2: Bdf1 bromodomain 1 (GST-tagged, WT) (Saccharomyces cerevisiae (strain ATCC …, UniProt P35817))
T2 chain: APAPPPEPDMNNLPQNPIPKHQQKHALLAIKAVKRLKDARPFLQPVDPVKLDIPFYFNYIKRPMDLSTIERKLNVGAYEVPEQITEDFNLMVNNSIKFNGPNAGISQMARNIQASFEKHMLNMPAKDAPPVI


Key:
[1] = molecular target: T1, Bdf1 bromodomain 2 (GST-tagged, WT); test: histone peptide array probed with recombinant GST-bromodomain, signal normalised to myc peptide control
[2] = molecular target: T2, Bdf1 bromodomain 1 (GST-tagged, WT); test: as above

Row | Binder | binding score [1] | binding score [2]
1 | ARTKQTARKSTGGKAPRKQ (A Rme2s T Kme1 Q T A Rme2s Kac S T G G K A P R K Q) | 0.0269 | 0.0109
2 | ARTKQTARKSTGGKAPRKQ (not fully specified) | 0.00718 | 0.00592
3 | KKKKKRRRRRXKKKKRK (K Kme1 Kme2 Kme3 Kac R Rme2s R Rme2a R Cit K Kme1 Kac Kme3 R K) [background 01] | 0 | 0
4 | ARTKQTARKSTGGKAPRKQ (A Rme2a T Kac Q T A Rme2a Kme3 S T G G K A P R K Q) | 0.00659 | 0.0133
5 | ARTKQTARKSTGGKAPRKQ (A Rme2s T Kme2 Q T A Rme2s Kme1 S T G G K A P R K Q) | 0.00423 | 0.00323
6 | SGRGKGGKGLGKGGAKRHR (S G Rme2a G Kac G G Kac G L G K G G A K R H R) | 0.137 | 0.0418
7 | ARTKQTARKSTGGKAPRKQ (A R T K Q T A R K S pT G G K A P R K Q) | 0 | 0
8 | ARTKQTARKSTGGKAPRKQ (A Rme2a T Kme2 Q T A Rme2a Kac S T G G K A P R K Q) | 0.00423 | 0.0126
9 | ARTKQTA[Arg(Me2a)]K(Me)[pS]TGGKAPRKQ | 0.00521 | 0
10 | ARTKQTARKSTGGKAPRKQ (A Rme2s T Kme2 Q T A R K S T G G K A P R K Q) | 0 | 0
11 | ARTKQTARKSTGGKAPRKQ (A Rme2a T Kme3 Q T A Rme2a Kac S T G G K A P R K Q) | 0 | 0.0145
12 | SGRGKGGKGLGKGGAKRHR (pS G Rme2s G K G G K G L G K G G A K R H R) | 0 | 0
13 | ARTKQTA[Arg(Me2a)][Lys(Me2)][pS][pT]GGKAPRKQ | 0 | 0.00448
14 | AR(Me2a)TK(Me)QTAR(Me2s)K(Me)STGGKAPRKQ | 0.00187 | 0.0102
15 | ARTKQTARKSTGGKAPRKQ (A R T K Q T A R Kme1 S T G G Kac A P R K Q) | 0.0902 | 0.0251
16 | RKSAPATGGVKKPHRYRPG (R K S A P A T G G V Kac K P H R Y R P G) | 0.0292 | 0.0463
17 | ARTKQTARKSTGGKAPRKQ (A Rme2s T Kme3 Q T A Rme2s Kme2 S T G G K A P R K Q) | 0 | 0.000538
18 | ARTKQTARKSTGGKAPRKQ (A Rme2s T Kac Q T A Rme2s Kme2 S T G G K A P R K Q) | 0 | 0
19 | ARTKQTARKSTGGKAPRKQ (A R T K Q T A R Kme1 S pT G G K A P R K Q) | 0.00344 | 0.0122
20 | ARTK(Ac)QTARKSTGGKAPRKQ | 0.00679 | 0.000538
21 | PRKQLATKAA[Arg(Me2a)][Lys(Me)]SAPATGG | 0 | 0.00341
22 | ARTKQTA[Arg(Me2a)][Lys(Me3)][pS][pT]GGKAPRKQ | 0 | 0.00251
23 | [pS]GRGK(Ac)QGGKARAKAKSRSS | 0.0135 | 0.00197
24 | A[Arg(Me2s)]TK(Ac)QTARK(Me)STGGKAPRKQ | 0.00305 | 0.00341
25 | A[Arg(Me2a)]T[Lys(Me3)]QTA[Arg(Me2a)][Lys(Me3)]STGGKAPRKQ | 0.00384 | 0
26 | ARTKQTARKSTGGKAPRKQ (A Rme2a T Kme2 Q T A Rme2s Kac S T G G K A P R K Q) | 0.0274 | 0.0213

Row | Binder | binding score [1] | binding score [2]
27 | SGRGK(Ac)QGGK(Ac)ARAK(Ac)AKSRSS | 0.394 | 0.144
28 | A[Arg(Me2s)]TK(Ac)QTA[Arg(Me2a)][Lys(Me2)]STGGKAPRKQ | 0.00698 | 0.00197
29 | ARTKQTARKSTGGKAPRKQ (A Rme2a T Kac Q T A Rme2a K S T G G K A P R K Q) | 0.00718 | 0.00932
30 | ARTKQTARKSTGGKAPRKQ (A R T K Q T A Rme2a Kme2 pS T G G K A P R K Q) | 0.0062 | 0.00215
31 | ARTKQTA[Arg(Me2a)][Lys(Me)][pS][pT]GGKAPRKQ | 0 | 0
32 | PDPAK(Ac)SAPAPKK(Ac)G[pS]K(Ac)KAVT [H2B 1-19] | 0.181 | 0
33 | PRKQLATKAAR[Lys(Me2)]SAPATGG | 0 | 0.01
34 | SGRGKGGKGLGKGGAKRHR (S G R G K G G Kac G L G Kac G G A Kac R H R) | 0.448 | 0.484
35 | PRKQLATKAA[Arg(Me2s)][Lys(Me)][pS]APATGG | 0 | 0
36 | ARTKQTARKSTGGKAPRKQ (A Rme2s T Kme1 Q T A Rme2s K S T G G K A P R K Q) | 0.0062 | 0
37 | ARTKQTARKSTGGKAPRKQ (A R T Kme2 Q T A Rme2s Kme1 S T G G K A P R K Q) | 0 | 0
38 | ARTKQTARKSTGGKAPRKQ (A Rme2s T Kme2 Q T A Rme2s Kac S T G G K A P R K Q) | 0.0314 | 0.0179
39 | ART[Lys(Me3)]QTA[Arg(Me2a)][Lys(Me)]STGGKAPRKQ | 0.00148 | 0
40 | RKSAPATGGVKKPHRYRPG (R K S A P A T G G V Kme3 K P H R Y R P G) | 0 | 0
41 | SGRGKGGKGLGKGGAKRHR (S G R G Kac G G Kac G L G Kac G G A K R H R) | 0.496 | 0.307
42 | PRKQLATKAARKSAPATGG (histone peptides carry modifications given inline in the sequence and in columns 4-7 (Kac, Kme1/2/3, Rme2a/s, Cit, pS/pT); N-terminus free or acetylated) | 0 | 0
43 | SGRGKGGKGLGKGGAKRHR (S G R G Kac G G K G L G K G G A K R H R) | 0.0404 | 0.00681
44 | ARTKQTARKSTGGKAPRKQ (A Rme2s T Kme3 Q T A R Kme3 S T G G K A P R K Q) | 0 | 0.0117
45 | A[Arg(Me2a)]TK(Me3)QTARKSTGGKAPRKQ | 0.00344 | 0.0122
46 | ARTKQTARKSTGGKAPRKQ (A Rme2a T Kme2 Q T A Rme2a K S T G G K A P R K Q) | 0.00698 | 0.00323
47 | PRKQLATKAA[Arg(Me2a)][Lys(Me2)][pS]APATGG | 0 | 0
48 | ARTKQTARKSTGGKAPRKQ (A Rme2s T Kme3 Q T A R K S T G G K A P R K Q) | 0 | 0
49 | PRKQLATKAA[Arg(Me2s)][Lys(Me3)][pS]APATGG | 0 | 0.00753
50 | AR[pT][Lys(Me3)]QTARKSTGGKAPRKQ | 0.006 | 0.00305
51 | ARTKQTARKSTGGKAPRKQ (A R T K Q T A R K S pT G G Kac A P R K Q) | 0.121 | 0.00574
